We go through 1 substance from patent US20150166628A1.

For this experiment, the target named is cellular IGF-1 receptors (UniProt P24062). Put plainly: cell-based or functional assay.
UniProt P24062, sequence (P24062 31-1370): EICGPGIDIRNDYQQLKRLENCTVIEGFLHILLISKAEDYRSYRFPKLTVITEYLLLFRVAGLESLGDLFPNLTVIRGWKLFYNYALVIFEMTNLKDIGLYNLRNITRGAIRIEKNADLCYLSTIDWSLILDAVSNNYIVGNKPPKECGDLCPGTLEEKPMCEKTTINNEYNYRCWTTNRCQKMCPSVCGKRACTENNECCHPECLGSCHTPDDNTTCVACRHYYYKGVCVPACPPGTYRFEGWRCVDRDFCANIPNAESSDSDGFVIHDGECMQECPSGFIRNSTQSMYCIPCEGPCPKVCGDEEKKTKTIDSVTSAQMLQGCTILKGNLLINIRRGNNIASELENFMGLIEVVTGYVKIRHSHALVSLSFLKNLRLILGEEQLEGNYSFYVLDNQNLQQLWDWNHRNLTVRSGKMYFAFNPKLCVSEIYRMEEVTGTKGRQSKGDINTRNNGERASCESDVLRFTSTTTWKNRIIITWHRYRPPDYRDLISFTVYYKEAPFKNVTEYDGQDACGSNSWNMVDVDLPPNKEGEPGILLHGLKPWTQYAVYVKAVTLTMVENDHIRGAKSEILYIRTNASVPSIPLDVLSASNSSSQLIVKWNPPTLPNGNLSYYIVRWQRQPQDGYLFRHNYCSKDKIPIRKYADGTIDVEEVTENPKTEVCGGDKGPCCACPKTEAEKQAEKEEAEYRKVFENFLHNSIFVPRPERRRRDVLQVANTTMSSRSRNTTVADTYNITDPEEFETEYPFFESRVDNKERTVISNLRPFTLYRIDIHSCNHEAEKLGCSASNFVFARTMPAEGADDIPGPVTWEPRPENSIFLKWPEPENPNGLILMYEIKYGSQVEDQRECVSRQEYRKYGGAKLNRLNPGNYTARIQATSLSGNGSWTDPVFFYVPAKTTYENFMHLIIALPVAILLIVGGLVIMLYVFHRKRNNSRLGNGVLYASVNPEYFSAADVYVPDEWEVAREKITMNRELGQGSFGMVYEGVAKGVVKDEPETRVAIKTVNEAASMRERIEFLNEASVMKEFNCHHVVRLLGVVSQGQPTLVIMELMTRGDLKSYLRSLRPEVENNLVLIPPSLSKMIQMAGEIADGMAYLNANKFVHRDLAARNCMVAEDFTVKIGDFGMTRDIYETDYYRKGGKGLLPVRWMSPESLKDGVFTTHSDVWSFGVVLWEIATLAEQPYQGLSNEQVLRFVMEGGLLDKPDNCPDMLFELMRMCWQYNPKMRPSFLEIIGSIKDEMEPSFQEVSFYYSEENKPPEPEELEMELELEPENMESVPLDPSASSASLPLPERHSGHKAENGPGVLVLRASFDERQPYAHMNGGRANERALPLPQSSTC

Turning to “HB-IGF-1 fusion protein (heparin-binding domain of human HB-EGF with a single cysteine-to-serine mutation fused to the amino-terminus of a mature IGF-1 protein) (from UniProt P05019 49-118)”, the sulfate incorporation into meniscal cartilage, normalized to saline injection, four days after injection (fold of saline) is 1.82 and the sulfate incorporation into meniscal cartilage, normalized to saline injection, two days after injection (fold of saline) was found to be 2.1.
